# Laboratory results: PMC4857006
# T1: mTdp2cat (Mus musculus, UniProt Q9JJX7 118-370)
# T1 sequence: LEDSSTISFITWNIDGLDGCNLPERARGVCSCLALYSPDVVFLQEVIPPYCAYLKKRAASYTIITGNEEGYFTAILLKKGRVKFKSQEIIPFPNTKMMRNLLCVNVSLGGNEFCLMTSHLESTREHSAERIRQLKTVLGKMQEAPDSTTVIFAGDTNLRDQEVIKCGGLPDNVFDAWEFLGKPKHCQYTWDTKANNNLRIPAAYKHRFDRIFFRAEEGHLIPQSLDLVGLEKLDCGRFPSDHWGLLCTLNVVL
# T2: hTdp2cat (Homo sapiens, UniProt O95551 108-362)
# T2 sequence: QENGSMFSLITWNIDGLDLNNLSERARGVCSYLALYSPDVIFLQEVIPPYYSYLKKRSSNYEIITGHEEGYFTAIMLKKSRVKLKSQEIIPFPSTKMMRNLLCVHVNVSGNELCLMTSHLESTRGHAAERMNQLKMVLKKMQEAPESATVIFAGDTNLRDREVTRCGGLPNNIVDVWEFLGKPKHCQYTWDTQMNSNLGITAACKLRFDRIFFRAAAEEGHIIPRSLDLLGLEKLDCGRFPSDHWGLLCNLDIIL
# B1: 5'-P dC DNA (dsDNA)
# DNA 1: CCGAATTCG
# DNA 2: CCGAATTCG
# modifications: 5'-phosphate
# B2: 12nt DNA (dsDNA)
# DNA 1: CATCCGAATTCG
# DNA 2: CATCCGAATTCG
# modifications: 5'-phosphate
# B3: 5'-P dA DNA (dsDNA)
# DNA 1: ACGAATTCG
# DNA 2: ACGAATTCG
# modifications: 5'-phosphate
# B4: 5'-P epsilonA DNA (dsDNA)
# DNA 1: ACGAATTCG
# DNA 2: ACGAATTCG
# modifications: 5'-phosphate; 5'-terminal A is 1-N6-ethenoadenine
# Assays:
# mTdp2cat [1] = molecular target: T1, mTdp2cat; experiment: X-ray crystallography; Mn2+ soak (5 mM MnCl2); Crystals: hTdp2cat-DNA in 90 mM Tris pH 7.0, 27% PEG600, 9% glycerol, 450 mM (NH4)2SO4; mTdp2cat-DNA as in ref 20. Proteolysis buffer not in the material. Trp f
# hTdp2cat [2] = molecular target: T2, hTdp2cat; experiment: X-ray crystallography (3.2 A); product complex; Crystals: hTdp2cat-DNA in 90 mM Tris pH 7.0, 27% PEG600, 9% glycerol, 450 mM (NH4)2SO4; mTdp2cat-DNA as in ref 20. Proteolysis buffer not in the material. Trp f
# hTdp2cat [3] = molecular target: T2, hTdp2cat; experiment: limited proteolysis protection (chymotrypsin); with or without Mg2+; Crystals: hTdp2cat-DNA in 90 mM Tris pH 7.0, 27% PEG600, 9% glycerol, 450 mM (NH4)2SO4; mTdp2cat-DNA as in ref 20. Proteolysis buffer not in the material. Trp f
# mTdp2cat [4] = molecular target: T1, mTdp2cat; experiment: limited proteolysis protection (trypsin, chymotrypsin); Mg2+; more protection than Mg2+ alone; Crystals: hTdp2cat-DNA in 90 mM Tris pH 7.0, 27% PEG600, 9% glycerol, 450 mM (NH4)2SO4; mTdp2cat-DNA as in ref 20. Proteolysis buffer not in the material. Trp f
# mTdp2cat [5] = molecular target: T1, mTdp2cat; experiment: X-ray crystallography (1.55 A); product complex; Crystals: hTdp2cat-DNA in 90 mM Tris pH 7.0, 27% PEG600, 9% glycerol, 450 mM (NH4)2SO4; mTdp2cat-DNA as in ref 20. Proteolysis buffer not in the material. Trp f
# mTdp2cat [6] = molecular target: T1, mTdp2cat; experiment: X-ray crystallography (1.43 A); Mg2+; product complex; Crystals: hTdp2cat-DNA in 90 mM Tris pH 7.0, 27% PEG600, 9% glycerol, 450 mM (NH4)2SO4; mTdp2cat-DNA as in ref 20. Proteolysis buffer not in the material. Trp f
binder,measurement,setting,value
B1,binding result,mTdp2cat [1],binds
same,binding result,hTdp2cat [2],binds
B2,binding result,hTdp2cat [3],binds
same,binding result,mTdp2cat [4],binds
B3,binding result,mTdp2cat [5],binds
B4,binding result,mTdp2cat [6],binds
